The test system of test [1] is SW-480 (colorectal cancer) cells. The experiment in a line: SW-480 colorectal cancer xenograft in nu/nu mice. The class given is in vivo, mouse. The note with it: average per group. How it is done:
Mice (nu/nu) were implanted subcutaneously with 5×10^6 SW-480 (colorectal cancer) cells. After 12 days, when tumors reached approximately 100-200 mg, the mice were separated into 5 groups and treated with the following agents (or left untreated): • 1—Untreated • 2—Vehicle (PBS) • 3—Cisplatin (4 mg/kg/, IV, q2d×5 times) • 4—A2-SV (negative control antibody @ 10 mg/kg, IP, q2d×14 times) • 5—DX-2220 (anti-Tie-1 antibody @ 10 mg/kg, IP, q2d×14 times)
Throughout the study, the length (L) and width (W) of any tumors that developed were measured in millimeters using calibrated vernier calipers, where L is the longer of the two dimensions. When applicable, tumor weight (M) in milligrams was calculated by using the formula associated with a prolate ellipsoid: M=(L×W^2)/2. […] A2-SV is an isotype matched (IgG1) negative control antibody that binds strepavidin.

Test [2] concerns the target T1, Tie1-EpoR chimeric receptor (UniProt P14753+P35590).
T1 construct: the PCR amplified extracellular part of human Tie1 (bp 37-2316 of X60975); expressed in transfected cells
T1 sequence (P35590+P14753 with tags, fused parts or gaps): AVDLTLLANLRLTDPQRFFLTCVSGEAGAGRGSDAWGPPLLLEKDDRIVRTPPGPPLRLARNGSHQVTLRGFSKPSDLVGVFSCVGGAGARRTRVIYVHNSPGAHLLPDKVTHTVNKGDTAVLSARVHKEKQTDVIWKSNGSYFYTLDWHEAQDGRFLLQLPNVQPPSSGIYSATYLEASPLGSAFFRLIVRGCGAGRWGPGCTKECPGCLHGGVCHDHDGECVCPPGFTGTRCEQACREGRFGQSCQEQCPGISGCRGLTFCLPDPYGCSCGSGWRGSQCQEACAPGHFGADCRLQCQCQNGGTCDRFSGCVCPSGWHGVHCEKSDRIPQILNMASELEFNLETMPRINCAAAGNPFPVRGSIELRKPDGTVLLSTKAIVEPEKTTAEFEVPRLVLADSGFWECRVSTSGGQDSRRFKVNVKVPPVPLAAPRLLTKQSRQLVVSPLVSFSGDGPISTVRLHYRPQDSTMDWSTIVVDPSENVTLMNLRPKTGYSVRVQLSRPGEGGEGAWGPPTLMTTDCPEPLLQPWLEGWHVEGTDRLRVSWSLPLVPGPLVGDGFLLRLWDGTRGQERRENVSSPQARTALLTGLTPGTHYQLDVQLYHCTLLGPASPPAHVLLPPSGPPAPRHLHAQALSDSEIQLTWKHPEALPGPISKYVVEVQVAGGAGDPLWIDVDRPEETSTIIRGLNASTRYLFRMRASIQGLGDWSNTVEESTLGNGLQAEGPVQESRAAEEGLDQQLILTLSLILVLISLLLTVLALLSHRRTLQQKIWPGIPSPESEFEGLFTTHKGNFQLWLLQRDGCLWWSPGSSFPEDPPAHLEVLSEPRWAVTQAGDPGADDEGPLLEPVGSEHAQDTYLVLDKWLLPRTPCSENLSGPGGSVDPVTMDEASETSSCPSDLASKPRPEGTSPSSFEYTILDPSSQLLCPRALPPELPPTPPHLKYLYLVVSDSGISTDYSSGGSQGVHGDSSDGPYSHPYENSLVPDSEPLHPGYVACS
The test can be described thus: Ba/F3 bioassay (Tie1/EpoR chimeric BaF3 cell assay), MTT viability. It is filed as cell-based, human. As to conditions: 100 ng/ml E3 IgG together with 100 (1:1) or 500 (1:5) ng/ml of the other antibody. The source says: To generate Tie1-EpoR expressing Ba/F3 cells for the bioassay, Ba/F3 pre-B cells were stably transfected with a nucleic acid that expresses chimeric receptor containing the extracellular domain of human Tie1 fused with the transmembrane and cytoplasmic domains of the mouse erythropoietin receptor. The nucleic acid used was a Tie1-EpoR chimeric cDNA in a pEF-BOS expression vector. The nucleic acid encoding the chimeric receptor was constructed by cloning the PCR amplified extracellular part of human Tie1 (bp 37-2316 of X60975) as EcoRI-BglII fragment into mEpoR-pcDNA vector. The cDNA encoding for the chimeric receptor consisting of the extracellular part of Tie1 fused with the transmembrane and intracellular domains of EpoR was subcloned into the pEF-BOS expression vector. Vector was linearized and co-transfected into Ba/F3 cells with pcDNA3.1(+) Zeo vector (Invitrogen). Stable cell pools were generated by selection with 250 μg/ml Zeocin. The expression of Tie1/EpoR fusion protein in several clones was analyzed by Western blotting with an antibody against EpoR.
To perform the assays, Ba/F3 cells expressing the Tie 1-EpoR chimera were split in 96-well microtiter plates at 50 000 cells/well in the presence of the indicated concentrations of anti-Tie1 antibodies. As controls, Zeocin resistant pools not expressing the Tie1-EpoR were used. After 48 h, the viability of the cells was determined by adding MTT (3-(4,5-dimethylthiazol-2-yl)-2,5-diphenyl tetrazolium bromide (Sigma), 0.5 mg/ml), followed by further 2 h of culture, addition of an equal volume of cell lysis solution (10% SDS, 10 mM HCl) and incubation overnight at 37° C. Absorbance was measured at 540 nm.
Although no ligand for Tie1 has been identified, we used the following efficient screening method for Tie1-binding proteins. Interleukin-3 dependent pre-B-lymphocyte (Ba/F3) cells were transfected with a construct that expresses a Tie1-EpoR fusion protein. Since Ba/F3 cells are IL-3 dependent, they die unless IL-3 is provided. However, Tie-EpoR receptor expressing Ba/F3 cells can survive and proliferate if the medium contains a Tie1-binding protein, either a natural ligand or an artificial mimetic. Cell survival can be quantitated, e.g., by colorimetric MTT-assay, which measures mitochondrial activity.

Another test addresses Tie1 (Homo sapiens, UniProt P35590). The test can be described thus: Immunohistochemistry of matched human tumor and normal tissue sections. Also noted: from tissue; host or cells: fresh frozen normal and tumor tissue (e.g. lung, kidney, skin, breast). The note with it: 10 μg/ml, fresh frozen tissue. How it is done:
The Tie-1 antibodies were biotinylated using the EZ-link Sulfo-NHS-SS-Biotin (Pierce, Cat. 21331). For Tie-1/Fc and Tie-1-His, the reaction was performed for 2 hours on ice in 50 mM sodium carbonate buffer, pH 9.6, in the presence of a 5-fold molar excess of biotinylating agent. For the antibodies, the reaction was performed for 2 hours on ice in PBS, in the presence of a 15-fold molar excess of EZ-link Sulfo-NHS-SS-Biotin. The reaction was stopped by the addition of Tris-HCl, pH 7.5 (50 mM final concentration) followed by a 1-hour incubation on ice. Samples were then dialyzed against PBS.
Various normal and tumor tissue sections were stained with biotinylated antibodies. A mouse monoclonal anti-Tie1 antibody (7e8) (Alitalo laboratory, University of Helsinki) was used as a positive control. Sections without primary antibody served as negative control. All samples were fresh frozen tissues and staining was performed with the TSA-kit (Perkin-Elmer Life Sciences). After acetone fixation (10-20 min, −20° C.) the slides were treated with 0.73% H2O2 for 10 min to reduce endogenous peroxidase activity followed by blocking for 30 min with TNB buffer. Sections ([…] thick) were incubated with primary antibodies (10 μg/ml) overnight at 4° C. Sections with the mouse monoclonal anti-tie1 antibody (7e8) were treated with biotinylated anti-mouse antibodies (VectaStain) before the addition of streptavidin-HRP. Signal was amplified by using a TSA kit and the visualized by AEC (235 ml NaAc, 15 ml AEC (stock solution: 1600 mg 3-amino-9-ethyl-carbazole and 480 ml N-dimethylformamide), 250 μl H2O2).

Test [3] deals with bFGF-induced angiogenesis. The test can be described thus: […] plug assay, bFGF-induced angiogenesis in NMRI nu/nu mice. It is filed as in vivo, mouse. As to conditions: first assay, day 7; bFGF 80 ng/ml; antibody 10 μg/ml in plug; E3 = germlined variant, IgG4. How it is done: The germlined variant of the E3 IgG antibody was evaluated in an in vivo assay for angiogenesis induced by bFGF in […]™ plugs. Growth factor reduced […]™ (BD Biosciences, catalog # 354230) was supplemented with 80 ng/ml of bFGF (R&D Systems, catalog #234-FSE). The A2-SV or an IgG4 E3 antibody (10 μg/ml) or PBS was injected subcutaneously into the abdominal area of NMRI nu/nu mice (150 μl of Matrigel/plug).
In the first assay, two mice were injected with […]™ supplemented with bFGF and soluble VEGFR-1 (10 μg/ml) as a positive control for an angiogenic inhibitor. At day 7 post-implantation mice were anesthetized and perfused through heart with 4% paraformaldehyde (PFA) in phosphate buffered saline (PBS). […]™ plugs and a piece of liver were removed and embedded in paraffin. Sections were cut and stained with hematoxylin and eosin (H&E).
In a second assay, mice were treated as described above, and then anesthetized eight days post-implantation and injected with fluorescein-conjugated tomato (lycopersicon esculentum) lectin (100 μg in 200 μl of PBS; Vector, catalog #FL-1171) into the tail vein. After five min circulation the animals were perfused through the heart with 10 ml of PBS followed by 10 ml of 4% PFA in PBS. […]™ plugs and pieces of kidney and liver were removed and frozen in OCT (Tissue-Tek). Nuclei were visualized on sections by using […]® mounting medium containing DAPI (Vector) and analyzed under fluorescence microscopy.

Three molecules from patent publication US7871610B2, “Antibodies to Tie1 ectodomain” (Dyax Corp., priority 2003, dated 2011) can be followed below.

Entries after “also recorded” stand apart in the source; their conditions may differ.

Sequence of Tie1 (P35590 22-1138): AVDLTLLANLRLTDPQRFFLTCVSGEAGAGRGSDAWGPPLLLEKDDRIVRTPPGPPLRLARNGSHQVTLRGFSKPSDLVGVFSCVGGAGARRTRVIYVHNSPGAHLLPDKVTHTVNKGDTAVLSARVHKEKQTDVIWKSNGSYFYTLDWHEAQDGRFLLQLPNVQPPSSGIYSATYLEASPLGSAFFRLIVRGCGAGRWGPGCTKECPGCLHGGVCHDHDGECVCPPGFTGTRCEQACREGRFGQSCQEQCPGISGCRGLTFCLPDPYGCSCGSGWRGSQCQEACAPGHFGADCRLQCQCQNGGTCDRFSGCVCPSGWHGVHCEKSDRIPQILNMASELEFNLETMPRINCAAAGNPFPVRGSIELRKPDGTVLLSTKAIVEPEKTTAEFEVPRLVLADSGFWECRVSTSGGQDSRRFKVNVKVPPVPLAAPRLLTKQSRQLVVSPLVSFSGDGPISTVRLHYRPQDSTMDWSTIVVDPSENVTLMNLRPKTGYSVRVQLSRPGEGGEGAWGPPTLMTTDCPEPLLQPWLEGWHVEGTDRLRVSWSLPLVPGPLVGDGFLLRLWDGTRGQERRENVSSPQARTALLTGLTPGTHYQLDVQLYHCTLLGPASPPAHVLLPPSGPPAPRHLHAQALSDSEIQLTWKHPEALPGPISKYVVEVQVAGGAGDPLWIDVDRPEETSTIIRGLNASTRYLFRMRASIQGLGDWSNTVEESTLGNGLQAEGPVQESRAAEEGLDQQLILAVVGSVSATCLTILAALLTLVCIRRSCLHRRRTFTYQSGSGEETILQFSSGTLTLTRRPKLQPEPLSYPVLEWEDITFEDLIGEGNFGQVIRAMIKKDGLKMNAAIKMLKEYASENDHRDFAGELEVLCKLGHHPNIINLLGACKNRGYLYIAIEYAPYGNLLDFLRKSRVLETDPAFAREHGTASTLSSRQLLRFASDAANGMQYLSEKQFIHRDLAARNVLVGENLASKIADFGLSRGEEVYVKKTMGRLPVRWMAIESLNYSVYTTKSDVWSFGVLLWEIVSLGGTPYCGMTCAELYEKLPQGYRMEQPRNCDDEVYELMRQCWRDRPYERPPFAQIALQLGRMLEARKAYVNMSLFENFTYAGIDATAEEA

On to `N.N.[Cl][Pt][Cl]` [cisplatin, reference compound], for which the “Tumor Weight” value was 48 mg in test [1] (5 days after cell injection (before treatment start at day 12)); 69 mg in test [1] (9 days after cell injection (before treatment start at day 12)); 137 mg in test [1] (12 days after cell injection (treatment start)); 185 mg in test [1] (15 days after cell injection); 207 mg in test [1] (19 days after cell injection); 235 mg in test [1] (22 days after cell injection). Besides, the “Tumor Weight” value was found to be 310 mg in test [1] (26 days after cell injection) and 363 mg in test [1] (28 days after cell injection).

B1: D11: anti-Tie1 antibody; VH SEQ ID NO:84, VL SEQ ID NO:86 (antibody, V domains shown)
VH: EVQLLESGGGLVQPGGSLRLSCAASGFTFSGYAMWWVRQAPGKGLEWVSSISPSGGATAYADSVKGRFTISRDNSKNTLYLQMNSLRAEDTAVYYCARDAGSYYWGWFDPWGQGTLVTVSSASTKGPSVFP
VL: HSAQDIQMTQSPATLSLSPGERATLSCRASQSISSYLAWYQQKPGQPPRLLIYDASSRVTGIPARFSGSGFGTDFTLTISSLEPEDFAVYYCLQRSSWPRTFGQGTKLEIK
modifications: Synthetically generated peptide
Turning to B1, the “effect on the survival effect of E3 IgG in Tie1-EpoR Ba/F3 assay” value in test [2] is reported as “completely blocked the viability; also recorded: blocked completely the survival effect of E3 IgG; also recorded: counteract the agonistic activity of E3”. In addition, in the test with Tie1, the “staining of breast carcinoma” value is recorded as “stained also other structures in addition to vessels”, the staining of kidney entry is listed as “stained kidney tubules in addition to the vessels”, the “staining of lung carcinoma” value is listed as “stained structures other than vessels” and the “staining of melanoma tissue” value is recorded as “also stained other surrounding structures”. Besides, in the test with Tie1, the “staining of normal lung (large veins)” value is “faint staining”; the “staining of normal skin” value is reported as “stained blood vessels very faintly”; the “staining of veins and capillaries of mammary tissue (breast)” value is on record as “stained those structures rather faintly”.

B2: soluble VEGFR1: soluble VEGFR-1 (10 μg/ml), positive control for an angiogenic inhibitor (protein, UniProt P17948 27-758, looked up)
extracellular domain: SKLKDPELSLKGTQHIMQAGQTLHLQCRGEAAHKWSLPEMVSKESERLSITKSACGRNGKQFCSTLTLNTAQANHTGFYSCKYLAVPTSKKKETESAIYIFISDTGRPFVEMYSEIPEIIHMTEGRELVIPCRVTSPNITVTLKKFPLDTLIPDGKRIIWDSRKGFIISNATYKEIGLLTCEATVNGHLYKTNYLTHRQTNTIIDVQISTPRPVKLLRGHTLVLNCTATTPLNTRVQMTWSYPDEKNKRASVRRRIDQSNSHANIFYSVLTIDKMQNKDKGLYTCRVRSGPSFKSVNTSVHIYDKAFITVKHRKQQVLETVAGKRSYRLSMKVKAFPSPEVVWLKDGLPATEKSARYLTRGYSLIIKDVTEEDAGNYTILLSIKQSNVFKNLTATLIVNVKPQIYEKAVSSFPDPALYPLGSRQILTCTAYGIPQPTIKWFWHPCNHNHSEARCDFCSNNEESFILDADSNMGNRIESITQRMAIIEGKNKMASTLVVADSRISGIYICIASNKVGTVGRNISFYITDVPNGFHVNLEKMPTEGEDLKLSCTVNKFLYRDVTWILLRTVNNRTMHYSISKQKMAITKEHSITLNLTIMNVSLQDSGTYACRARNVYTGEEILQKKEITIRDQEAPYLLRNLSDHTVAISSSTTLDCHANGVPEPQITWFKNNHKIQQEPGIILGPGSSTLFIERVTEEDEGVYHCKATNQKGSVESSAYLTVQGTSDKSNLE
modifications: extracellular domain
Regarding B2, the “vessel-like structures in MATRIGEL plugs (H&E staining)” value in test [3] is listed as “neither modification of the matrix nor organization of the cells”.
